We go through two molecules from paper PMC4178060, “Recombinant p35 from Bacteria Can Form Interleukin (IL-)12, but Not IL-35” (PLoS ONE, 2014).

Data set [1] has as its target T1, p40_(C197A) (murine p40, flag-tagged) (mouse) (UniProt P43432).
T1 sequence: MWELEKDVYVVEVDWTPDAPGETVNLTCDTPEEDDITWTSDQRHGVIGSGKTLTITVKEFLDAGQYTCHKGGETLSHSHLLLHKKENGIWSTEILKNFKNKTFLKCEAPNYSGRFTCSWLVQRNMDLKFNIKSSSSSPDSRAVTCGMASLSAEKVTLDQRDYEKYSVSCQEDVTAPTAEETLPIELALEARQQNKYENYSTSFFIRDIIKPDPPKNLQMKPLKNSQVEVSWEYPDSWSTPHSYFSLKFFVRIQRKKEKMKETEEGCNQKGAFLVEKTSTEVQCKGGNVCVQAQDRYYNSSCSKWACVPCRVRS

Data set [2] deals with the molecule itself. Kind of data set: non-reducing SDS-PAGE with Western blot; 20 µl conditioned supernatant of transiently transfected HEK293 cells separated by SDS-PAGE under non-reducing conditions; flag-specific antibody; disulfide-linked dimer. (A western blot detects proteins with antibodies after separation by electrophoresis.)

One may read the stoichiometry N as the number of molecules, sites or subunits per partner or assembly.

B1: recombinant murine p35 from bacteria (p35bac) (natural protein)
chain: RVIPVSGPARCLSQSRNLLKTTDDMVKTAREKLKHYSCTAEDIDHEDITRDQTSTLKTCLPLELHKNESCLATRETSSTTRGSCLPPQKTSLMMTLCLGSIYEDLKMYQTEFQAINAALQNHNHQQIILDKGMLVAIDELMQSLNHNGETLRQKPPVGEADPYRVKMKLCILLHAFSTRVVTINRVMGYLSSA
B1: in data set [1], the biological activity of IL-12 reconstituted with bacterially expressed p35, compared to IL-12 (Ba/F3-gp130-IL-12Rβ1-IL-12Rβ2 cells) (fold less active) is more than 100.

B2: p40 wildtype (murine p40, flag-tagged) (natural protein, mouse, UniProt P43432 23-335, looked up)
chain: MWELEKDVYVVEVDWTPDAPGETVNLTCDTPEEDDITWTSDQRHGVIGSGKTLTITVKEFLDAGQYTCHKGGETLSHSHLLLHKKENGIWSTEILKNFKNKTFLKCEAPNYSGRFTCSWLVQRNMDLKFNIKSSSSSPDSRAVTCGMASLSAEKVTLDQRDYEKYSVSCQEDVTCPTAEETLPIELALEARQQNKYENYSTSFFIRDIIKPDPPKNLQMKPLKNSQVEVSWEYPDSWSTPHSYFSLKFFVRIQRKKEKMKETEEGCNQKGAFLVEKTSTEVQCKGGNVCVQAQDRYYNSSCSKWACVPCRVRS
notes: murine p40 (IL-12 subunit beta); The supernatant holds monomer and disulfide-linked dimer; also called mp40; IL-12p40; source: HEK293, transiently transfected, conditioned supernatant
As to B2, the “stoichiometry N” value in data set [2] was found to be 2.
